Assay results taken from paper PMC2173431 (The Journal of Cell Biology, 2003).
Like-named read-outs stand apart in the source and are kept apart here.

T1: GST-AIP (human, UniProt O00170 1-330)
T1 sequence (looked up): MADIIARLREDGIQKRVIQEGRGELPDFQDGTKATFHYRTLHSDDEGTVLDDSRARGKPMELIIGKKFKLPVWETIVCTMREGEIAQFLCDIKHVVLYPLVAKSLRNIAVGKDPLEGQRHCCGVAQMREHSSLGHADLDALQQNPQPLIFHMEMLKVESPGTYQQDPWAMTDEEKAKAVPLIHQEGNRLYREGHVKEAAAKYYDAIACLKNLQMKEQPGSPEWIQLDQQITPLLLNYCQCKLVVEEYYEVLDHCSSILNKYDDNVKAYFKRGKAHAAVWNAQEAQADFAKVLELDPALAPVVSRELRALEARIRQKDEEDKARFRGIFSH


Legend:
GST-AIP [1] = target: T1, GST-AIP; experiment: pull-down
GST-AIP [2] = target: T1, GST-AIP; experiment: pull-down; remark: listed apart in the source

binding result (GST-AIP [1])	binding result (GST-AIP [2])	Binder
binds		QRIVSAQSLAEDDVE [Tom20C[131–145] peptide]
binds		MLFNLRILLNNAAFRNGHNFMVRNFRCGQPLQ [synthetic presequence peptide of human pOTC]
	binds	MBP-cT20 (domain or fragment, human, UniProt Q15388 25-145, looked up) DRKRRSDPNFKNRLRERRKKQKLAKERAGLSKLPDLKDAEAVQKFFLEEIQLGEELLAQGEYEKGVDHLTNAIAVCGQPQQLLQVLQQTLPPPVFQMLLTKLPTISQRIVSAQSLAEDDVE
